For nine sequences, binding results are on record in publication PMC6754071.

The test system of the data set is T1, PolR (Microlunatus phosphovorus NM-1), ORF:57668f7d.
T1 sequence: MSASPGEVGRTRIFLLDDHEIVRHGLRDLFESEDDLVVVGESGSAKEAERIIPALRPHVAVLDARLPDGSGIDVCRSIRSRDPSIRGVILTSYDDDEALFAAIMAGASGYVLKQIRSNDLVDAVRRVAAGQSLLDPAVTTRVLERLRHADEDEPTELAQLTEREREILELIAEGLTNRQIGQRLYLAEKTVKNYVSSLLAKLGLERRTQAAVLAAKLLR
Kind of data set: EMSA. The conditions noted are these: EMSA: 3.0 ug His-PolR, 1.0 ug poly(dI-dC), 8% native PAGE, buffer not given (cites Zhang 2014); footprinting: 30 min room temperature, DNase I 1 min 25 C.
As for “AGACGAGTGCTGCCGTGCACCGACTTCGCATCGGCGCCGCAACACAGTCCCCGCCCGTCGTTCGCTCGGCGTTCACCGGCGGGCCCTCGAGTCGTCAGAATGGCTGCCTAGCGTCTGGACCGGAGCCAGTGTCGCTCCTTACGTTCATTGCACGAGTCACACTCCGACAAGGGGAACGAGTGAAGAT (double strand) [pstS (MLP_RS23035) promoter]”, the binding result is given as “binds”.

Take “ATTTGCAGCACTCCGTTCGCCGATTTGCAGCAGGCTTCTGTTCCGTGTGGTCCCCCGACCCAGGGGACCACGGAAACAACTGCGCAGCCCCCGCCCGAGGATCACCCGGAATCTTCCCCCAGGTTTGCCCTGACCCACAGAGGACGCCGCGGGACGAAGTCAACTTCAGCGTACGGTGGAGCACA (double strand) [ppgk (MLP_RS02595) promoter]”: the binding result is listed as “no binding”.

“CAGTTCACAGTCGCGATACTAGGTCGTAAGCCCGCCTCAAGTTGCCGCTCATGGGGTCGCCACACGCAGCTACAGGGAGGGTTCGGGCTGAGTTCACCCCTCGTTCACATCCGAACTTCGCCAGCCGGTCCATTTCGGGCATAGGCTCGAAGTCGAGCTTTTCTGATCAATCCCGAGGAATCC (double strand) [phoU (MLP_RS22885) promoter]”: the binding entry is given as “no binding”.

“GACAGCGATCACGGAGATCAGTAGCCAGTCCATGATTGATCTTCCCCTTGCACGGTCAACAACGACAACCCAATCGTCGTGCCATGAGATGGTCGGCCACACGGGTCTTTCGGCTCTATCTGGTCCTTCCTTCGTCACCGGGAGGGCCCGCCGCCGTTCACCCACCGTTCACTGTGCTGGTCG (double strand) [pit (MLP_RS00235) promoter]”: the binding entry is “binds”.

Take “TCAGCCATCTGGACAACCTATCGTCCACACCACACGAGATAGCCGAGTTGGTCAGGTATTGATGCGAGTTGGGGTCGAACGTCCCGTCAGATCCGGTTCGAACGCATCACCTTTGAGTGAAGGCTCATCCGACAACGGGGATCAGCACACTCCTAG (double strand) [ppk (MLP_RS23025) promoter]”: the binding result is reported as “binds”.

Regarding “TCGCTCTCGGTGTTGATCGATCCGGAGCGCCCGTCCAGACCCTGCACCGATCCGTCGAGGGTCGAGACGAAGTTGCTCCGGACGACCGGTCCGGAGCCGCCTTCGGGCCAGCGATAGAGATCGATCAGGTCTGCTCGGCTGAGCTCGGCGGATGGTCGAGGGTCCGCGTG (double strand) [pap (MLP_RS11265) promoter]”, the binding entry is recorded as “no binding”.

Consider “TCGTCTCGGCAGCCCTTGGGTGAACTGTTCTCCGAGCGTGAGTAACGCCTCCGGGCGAGCGAGATGAACTGTTCGTGAATCCGCCGCCCGGGGGCCGTTCCAGGTGGATTTGACCGGTTTCGGAACCCCACGATGGTCGCGTGACCGAAGCTC (double strand) [pit (MLP_RS14415) promoter]”, for which the binding entry is “no binding”.

As for “TGTGTCCCTTCCGTGAAACCTCGTCGGTGAAGTCTGGTGCGGGCGAGGGGAATCCCGCCCGGAGGGGAGGCTAAACCACCCAGGAGAATGAATGGAGTGTGGTGGCGCCTCGCGAGAATCCGAGCCGCTTCGGCGGATCGGCGCCCGAGGCTCCCTCCGGTGACAGCACGTTCACCCTGCC (double strand) [ppgk (MLP_RS12905) promoter]”, the binding entry was “binds”.

Consider “TTCGACCTCCGTATTCGGCTATTCGACTGTCCACCCTCTTCGTTACCACCGAGGGAGACACGTCACATTCACAACTCCCGGTCTGCGGATCAGACCAGCGATGCTGTCCGTGACTGCGGAAAGCTGACGACCGGAGACTGAGCGCCGGGGACCCGTTAACCCATTGTTCGCCCGGCA (double strand) [ppk2 (MLP_RS02760) promoter]”, for which the binding entry is on record as “no binding”.
